Assay results from patent publication US20220025021A1 (BETH ISRAEL DEACONESS MEDICAL CENTER, published 2022).
Changes are numbered by the printed parent chain.

B1: MS-93 (antibody)
VH: not shown
VL: DIVLTQSPLSLSVTPGESASISCKSSHSLIHGDRNNYLAWYVQKPGRSPQLLIYLASSRASGVPDRFSGSGSDKDFTLKISRVETEDVGTYYCMQGRESPWTFGQGTKVDIKRTVAAPSVFIFPPSDEQLKSGTASVVCLLNNFYPREAKVQWKVDNALQSGNSQESVTEQDSKDSTYSLSSTLTLSKADYEKHKVYACEVTHQGLSSPVTKSFNRGEC
B2: MS-95 (antibody)
VH: not shown
VL: B1 VL with L9H, D73G
B3: MS-102 (antibody)
VH: not shown
VL: B1 VL with I2F, L9H, D73G, T85A
B4: MS-94 (antibody)
VH: not shown
VL: B1 VL with L9H, S18P
B5: MS-99 (antibody)
VH: not shown
VL: B1 VL with I2F, T85A
B6: MS-103 (antibody)
VH: not shown
VL: B1 VL with S18P
B7: MS-97 (antibody)
VH: not shown
VL: B1 VL with I2F, S18P
B8: MS-101 (antibody)
VH: not shown
VL: B1 VL with I2F, L9H, S18P, T85A

Experiments:
Assay in all cases: cell-based or functional assay
[1] = target: HIV-1 envelope glycoprotein of pseudovirus RHPA4259.7 (HIV-1)
[2] = target: HIV-1 envelope glycoprotein of pseudovirus BB1012-11.TC21 (HIV-1)
[3] = target: HIV-1 envelope glycoprotein of pseudovirus DU172.17 (HIV-1)
[4] = target: HIV-1 envelope glycoprotein of pseudovirus SC422661.8 (HIV-1)
[5] = target: HIV-1 envelope glycoprotein of pseudovirus CNE52 (HIV-1)
[6] = target: HIV-1 envelope glycoprotein of pseudovirus 0260.v5.c36 (HIV-1)

Row | Binder | IC50 (neutralization in TZM.bl cells) [1] [µg/mL] | IC80 (neutralization in TZM.bl cells) [1] [µg/mL] | IC50 (neutralization in TZM.bl cells) [2] [µg/mL] | IC80 (neutralization in TZM.bl cells) [2] [µg/mL] | IC50 (neutralization in TZM.bl cells) [3] [µg/mL] | IC80 (neutralization in TZM.bl cells) [3] [µg/mL] | IC50 (neutralization in TZM.bl cells) [4] [µg/mL] | IC80 (neutralization in TZM.bl cells) [4] [µg/mL] | IC50 (neutralization in TZM.bl cells) [5] [µg/mL] | IC80 (neutralization in TZM.bl cells) [5] [µg/mL] | IC50 (neutralization in TZM.bl cells) [6] [µg/mL] | IC80 (neutralization in TZM.bl cells) [6] [µg/mL]
1 | B1 | 0.358 | 1.6 | 0.034 | 0.118 | 3.24 | 9.14 | 0.333 | 2.71 | 0.636 | 5.6 | 0.034 | 0.116
2 | B2 | 0.208 | 0.69 | 0.044 | 0.117 | 1.97 | 7.07 | 0.433 | 2.88 | 0.567 | 5.05 | 0.022 | 0.06
3 | B3 | 0.178 | 0.649 | 0.031 | 0.1 | 1.16 | 5.91 | 0.17 | 1.21 | 0.211 | 1.87 | 0.019 | 0.053
4 | B4 | 0.358 | 0.985 | 0.055 | 0.146 | 3.03 | 11.2 | 0.315 | 1.23 | 0.455 | 5.18 | 0.027 | 0.095
5 | B5 | 0.257 | 0.718 | 0.032 | 0.084 | 1.95 | 7.14 | 0.294 | 1.46 | 0.219 | 1.8 | 0.024 | 0.087
6 | B6 | 0.29 | 1.33 | 0.046 | 0.155 | 2.68 | 10.2 | 0.408 | 1.99 | 0.432 | 4.18 | 0.03 | 0.104
7 | B7 | 0.183 | 0.824 | 0.04 | 0.13 | 2.21 | 7.54 | 0.311 | 2.09 | 0.214 | 1.62 | 0.028 | 0.096
8 | B8 | 0.227 | 0.816 | 0.037 | 0.121 | 2.41 | 6.88 | 0.251 | 1.88 | 0.145 | 1.23 | 0.025 | 0.069
